Measurements taken from US20240181125A1 (published 2024).
Primed or numbered codes have the meaning given here. Ends that are not written are not given here. FITC′ = not defined here

T1: TGFβ receptor I (TβR1), R&D, coated on ELISA plate
T1 chain: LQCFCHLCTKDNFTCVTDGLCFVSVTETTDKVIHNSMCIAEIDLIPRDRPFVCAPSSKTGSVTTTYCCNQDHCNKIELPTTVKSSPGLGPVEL


Experiments:
Assay in all cases: ELISA-like binding assay
[1] = biological target: T1, TGFβ receptor I (TβR1), R&D, coated on …
TβR3 = biological target: TβR3
IgG = biological target: IgG

Kd [1] [µM] | Kd (TβR3) [µM] | Kd (IgG) [µM] | Binder
35.2 | – | – | ECGLLPVGRPDRVWRLCK-{FITC′} (cysteine pairing not given here) [peptide-based TGFβ receptor II inhibitor (PTβR2I), ECGLLPVGRPDRVWRLCK-FITC]
– | 41.1 | 83 | ECGLLPVGRPDRVWRLCK-{FITC′} (cysteine pairing not given here) [PTβR2I]
